The target in test [1] is T1, Tim3-ECD-His-Biotin (human, UniProt Q8TDQ0 22-202, biotinylated with BirA Ligase, site not stated).
T1 construct: also called human Tim3 (ELISA); Biochem Human
The experiment in a line: ELISA on human Tim3. Background: In an ELISA, binding on a coated surface is turned into a signal by an enzyme label.

Test [2] deals with T2, full-length human Tim3 on cells (CHO-K1 stably transfected with plasmid 15312_hTIM3-fl_pUC_Neo) (human, UniProt Q8TDQ0 22-301).
T2 construct: Also used as the target of the MLR read-outs (native TIM-3); also called CHO-Tim3; CHO-TIM3
The experiment in a line: cellular ELISA on CHO-TIM3.

Test [3] has as its target T3, monomeric human Tim3-ECD (human, UniProt Q8TDQ0 22-202).
T3 construct: SPR analyte; also called huTim3; hu Tim3-ECD
The experiment in a line: SPR, Ab captured, monomer Tim3. On the technique in general: Surface plasmon resonance follows binding to a sensor surface in real time, without labels.

Test [4] addresses T4, huFc fused dimeric human Tim3-ECD (human, UniProt Q8TDQ0 22-202).
T4 construct: also called huTim3Fc; Fc-tagged human Tim3-ECD dimer
The experiment in a line: SPR, Ab captured, dimer Tim3 (avidity).

The target of test [5] is T1, Tim3-ECD-His-Biotin. The experiment in a line: ELISA on streptavidin-captured Tim3-ECD-His-Biotin.
The target in test [6] is T2, full-length human Tim3 on cells (CHO-K1 …). The experiment in a line: cell ELISA on CHO-K1 cells with full-length human Tim3.
For test [7], the target named is T3, monomeric human Tim3-ECD. The experiment in a line: SPR BIAcore B4000, Ab captured on anti-mouse IgG, 25 C.
Test [8] concerns the target T1, Tim3-ECD-His-Biotin. The experiment in a line: ELISA on human Tim3 (values in relation to the samples max value).
Test [9] has as its target T2, full-length human Tim3 on cells (CHO-K1 …). The experiment in a line: cellular ELISA on CHO-TIM3 (values in relation to the samples max value).
For test [10], the target named is T4, huFc fused dimeric human Tim3-ECD. The experiment in a line: SPR BIAcore B4000, Ab captured on anti-mouse IgG, 25 C, dimeric antigen (avidity).
The target in test [11] is T5, full-length human PD1 on cells (CHO-K1 stably transfected with plasmid 15311_hPD1-fl_pUC_Neo) (human, UniProt Q15116 25-288). The experiment in a line: cell-based or functional assay.
For test [12], the target named is T5, full-length human PD1 on cells (CHO-K1 …). The experiment in a line: cell-based or functional assay. The source holds these as a separate data set.
For test [13] the target is unchanged. The experiment in a line: cell-based or functional assay. The source holds these as a separate data set.
Test [14] shares this target. The experiment in a line: cell-based or functional assay. This is another data set of the same source.
Test [15] addresses T6, biotinylated PD1-ECD-AviHis (human, UniProt Q15116 25-170, biotinylated, site not stated).
T6 construct: also called huPD1; hu PD1
The experiment in a line: ELISA on coated biotinylated PD1-ECD-AviHis.

Test [16] addresses T6, biotinylated PD1-ECD-AviHis. The experiment in a line: ELISA on coated biotinylated PD1-ECD-AviHis. The source holds these as a separate data set.
Test [17] addresses T7, biotinylated TIM3-ECD-AviHis (human, UniProt Q8TDQ0 22-202, biotinylated, site not stated).
T7 construct: also called huTIM3; Hu TIM3
The experiment in a line: ELISA on coated biotinylated TIM3-ECD-AviHis.

The target of test [18] is T8, human PD1-ECD (human, UniProt Q15116 25-170).
T8 construct: SPR analyte; also called hu PD1-ECD
The experiment in a line: SPR Biacore T200, Ab captured on anti-human IgG, 25 C.

The target of test [19] is T9, Tim3-CLIP (on transiently transfected HEK293 cells) (human, CLIP-tag labelled with Clip-Red).
T9 construct: The plasmid encodes residues 1-202 including the signal peptide; also called CLIP-tagged TIM3
The experiment in a line: cell-based TR-FRET on SNAP-tagged PD1 / CLIP-tagged TIM3 HEK293 cells, 1 h at 4 C; signal needs both receptors bound at once. For orientation: TR-FRET usually uses a lanthanide donor and a delayed reading to cut background.

Test [20] concerns the target T8, human PD1-ECD. The experiment in a line: SPR; row head 'Affinity KD 37°C [nM] *)', first of two values, footnote not explained; first of the two values in the cell; row head KD 37°C, footnote *) not given.
Test [21] addresses T6, biotinylated PD1-ECD-AviHis. The experiment in a line: ligand replacing ELISA on coated PD1-ECD-AviHis; row head 'IC50 PD-L1, 2', competitor not told apart; blocking of ligand binding; head says 'PD-L1, 2', competitor not told apart.
Test [22] has as its target T8, human PD1-ECD. The experiment in a line: SPR; row head 'Affinity KD 37°C [nM] *)', second of two values (equals the 25 C value of Table 9); second of the two values in the cell; footnote *) not given, so the difference from the first value is not told.
Another test addresses T10, monomeric cyno Tim3-ECD (cynomolgus, UniProt A0A2K5U3G7 22-195).
T10 construct: extracellular domain; also called cyTim3; cynomolgus Tim3
T10 sequence: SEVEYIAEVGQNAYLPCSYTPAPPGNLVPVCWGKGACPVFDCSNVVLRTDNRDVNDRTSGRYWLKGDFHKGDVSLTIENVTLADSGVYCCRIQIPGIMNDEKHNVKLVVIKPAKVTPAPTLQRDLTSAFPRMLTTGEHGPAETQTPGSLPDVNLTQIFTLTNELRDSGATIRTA
The experiment in a line: SPR BIAcore B4000, Ab captured on anti-mouse IgG, 25 C.

Usually EC50 stands for the concentration at which the effect is half-maximal. A high value points to a less potent agent. The koff is a measure of how fast the partners let go of each other. Low readings indicate a long-lived complex, high ones a short-lived complex. One may read the kon as a measure of how fast the partners come together. Usually IC50 stands for the concentration that inhibits the measured activity by half. A higher IC50 goes with lower potency.

“And” between values parts separate entries of the source, which are not always exact repeats. Equal entries are not always repeated. Where two headings read alike, the source gives them in different places.

B1: Tim3_0016 variant (0018) (antibody, V domains shown)
VH: QVTLKESGPGILQPSQTLSLTCSFSGFSLSTSGMSVGWIRQPSGKGLEWLAHIWLNDDVFFNPALKRRLTISKDTSNNQVFLQIASVVTADTATYYCVRANGYLYALDYWGQGISVTVSS
VL: QIVLTQSPAIMSASPGQKVTITCSASSSVNYTQWYQQKLGSSPKLWIYDAFKLAPGVPARFSGSGTGTSYSLTISSMEAEDAASYFCHQWSSYPWTFGGGTKLEIK
notes: Mouse monoclonal antibody; also called Tim3_0018; Tim3 0018
For the molecule B1, the Inflexion point in the test with Tim3-ECD-His-Biotin [1] stood at 15.3 ng/mL; in test [2] it was 29.4 ng/mL. Moreover, the Kd with monomeric human Tim3-ECD [3] is 3.4 nM; in test [4], 1.1 nM; with monomeric human Tim3-ECD [7], 3.4 nM; in test [10], 1.11 nM. Further, the EC50 was 0.56 nM and 0.094 µg/mL with Tim3-ECD-His-Biotin [5]; 0.52 nM and 0.087 µg/mL in [6]; 0.0151 µg/mL with Tim3-ECD-His-Biotin [8]; 0.0264 µg/mL in test [9].

B2: chimeric PD1-0103 (antibody, human IgG1, V domains shown)
VH: EVILVESGGGLVKPGGSLKLSCAASGFSFSSYTMSWVRQTPEKRLDWVATISGGGRDIYYPDSVKGRFTISRDNAKNTLYLEMSSLMSEDTALYYCVLLTGRVYFALDSWGQGTSVTVSS
VL: KIVLTQSPASLPVSLGQRATISCRASESVDTSDNSFIHWYQQRPGQSPKLLIYRSSTLESGVPARFSGSGSRTDFTLTIDPVEADDVATYYCQQNYDVPWTFGGGTKLEIK
As to B2, the “EC50 of IFN-gamma secretion in MLR, donors D2 + D6” value in [11] came to 7.7 nM; in [12], 6.5 nM; in test [13], 6 nM. Also, in test [14], the “EC50 of IFN-gamma secretion in MLR, donors D1 + D3” value amounted to 5.7 nM. Moreover, in test [14], the “EC50 of IFN-gamma secretion in MLR, donors D2 + D4” value was found to be 5.7 nM. Moreover, the figures for the concentration for a half-maximal effect (EC50) in test [15] and in test [16] were 0.2 nM and 0.12 nM, respectively. The binding result in test [17] is “no binding”; in [19], “no binding (tested: about 20 nM)”. For the same molecule, the Kd with human PD1-ECD [18] came to 0.8 nM; with human PD1-ECD [20], 2 nM; in the test with human PD1-ECD [22], 0.8 nM. For the same molecule, the koff with human PD1-ECD [18] turned out to be 0.000307 s⁻¹. Also, the kon with human PD1-ECD [18] was 386000 M⁻¹ s⁻¹. The same molecule gave an IC50 in test [21] of 1.35 nM.

B3: Tim3_0022 (antibody, V domains shown)
VH: EVQLQESGPSLVKPSQTLSLTCSVTGDSIASAYWNWIRKFPGNKLEYMGYINYSGSTYYNPSLKSRISITRDTSQNQYYLQLNSVTTEDTATYYCVTGDYFDYWGRGTTLTVSS
VL: DIQMTQSPSSLSAYLGGKVTITCKARQDVRKNIGWYQHKPGKGPRLLIWYTSTLQSGIPSRFSGSGSGRDYSFNINNLEPEDIATYYCLQYDNLPFTFGTGTKLEIR
B3 gave a Kd with monomeric cyno Tim3-ECD of 28.4 nM.

These data come from US20190322748A1 (Hoffmann-La Roche, published 2019).
